Read-outs that look alike come from different tables or passages of the source. Ends that are not written are not given here.
Assays:
[1] = target: ERK1 (Rattus norvegicus, UniProt P21708); assay: Phosphorylation of substrates by purified, activated ERK1 (32P incorporation, P81 paper); format: biochemical; conditions: for RELATIVE 32P INCORPORATION (% OF MBP): peptides 1 mM, MBP 20 μM, 10 min at 30° C., median of three determinations
From the text: Materials: Purified peptides were obtained from Sigma (St. Louis, Mo.) or custom synthesized by Louisiana State University Health Science Center Core Laboratories (New Orleans La.). Purified, activated ERK1 was a gift from Dr. M. H. Cobb (University of Texas Southwestern Medical Center, Dallas, Tex.). Purified, recombinant, activated ERK2 was a gift from Dr. N. G. Ahn (University of Colorado, Boulder, Colo.). Except as indicated below, other materials were purchased from Sigma. The new synthetic peptides modeled after Ser31 in human tyrosine hydroxylase are indicated.
(§1) ERK activity assays: Aliquots of supernatants or ERK1/2 immunoprecipitates (suspended in lysis solution) were mixed with substrate (1 mM final, unless stated otherwise) at 4° C. Phosphorylation reactions were initiated by addition of an equal volume of assay buffer containing [γ-^32P]ATP (NEN Life Sciences Products, now PerkinElmer Life Sciences, Boston, Mass.) and Mg^++ and allowed to proceed for 10 min at 30° C., after which duplicate 20 μl aliquots were spotted onto Whatman P81 paper. As would be predicted by the presence of multiple basic residues in the peptides, the ability of P81 paper to bind >90% of each of the peptides used in Tables 2 and 3 was confirmed by UV detection following RP-HPLC. The final reaction mixtures (50 μl) contained 50 mM β-glycerophosphate, 10 mM MgCl2, 1 mM EGTA, 1 mM dithiothreitol, 1 mM benzamidine, 0.1 mM ATP, 0.1 mM Na3VO4, 10 μM calmidazolium, 2 μM peptide inhibitor of cyclic AMP-dependent protein kinase ([…], SEQ ID NO: 24), 10 μg/ml leupeptin, and 0.025% Tween 20.
To test the effectiveness of various peptide substrates, peptide substrates were compared with myelin basic protein (“MBP,” SEQ ED NO: 1) for relative ability to be phosphorylated by purified ERK1 or ERK2. The ERK activity assay was as described above in Example 1. In Table 2, each value represents the median of three independent determinations, performed in duplicate. While all peptides were assayed at a concentration of 1 mM, MBP phosphorylation—given as a frame of reference at a concentration typically used in such assays—was assayed at 20 μM. ^32P incorporation into MBPtide (SEQ ID NO: 2) was 330 nmol/min/mg under the assay conditions used.

[2] = target: T1, ERK2 (Rattus norvegicus, UniProt P63086); assay: Phosphorylation of TH Ser31-containing peptides by purified, recombinant, activated ERK2; format: biochemical; conditions: for RELATIVE 32P INCORPORATION (% 3.0 μmol/min/mg) Mean: mean of four determinations; for RELATIVE 32P INCORPORATION (% 3.3 μmol/min/mg): substrate 1 mM, median of three determinations
From the text: Materials: Purified peptides were obtained from Sigma (St. Louis, Mo.) or custom synthesized by Louisiana State University Health Science Center Core Laboratories (New Orleans La.). Purified, activated ERK1 was a gift from Dr. M. H. Cobb (University of Texas Southwestern Medical Center, Dallas, Tex.). Purified, recombinant, activated ERK2 was a gift from Dr. N. G. Ahn (University of Colorado, Boulder, Colo.). Except as indicated below, other materials were purchased from Sigma. The new synthetic peptides modeled after […] in human tyrosine hydroxylase are indicated. ERK activity assays: Aliquots of supernatants or ERK1/2 immunoprecipitates (suspended in lysis solution) were mixed with substrate (1 mM final, unless stated otherwise) at 4° C. Phosphorylation reactions were initiated by addition of an equal volume of assay buffer containing [γ-^32P]ATP (NEN Life Sciences Products, now PerkinElmer Life Sciences, Boston, Mass.) and Mg^++ and allowed to proceed for 10 min at 30° C., after which duplicate 20 μl aliquots were spotted onto Whatman P81 paper. As would be predicted by the presence of multiple basic residues in the peptides, the ability of P81 paper to bind >90% of each of the peptides used in Tables 2 and 3 was confirmed by UV detection following RP-HPLC. The final reaction mixtures (50 μl) contained 50 mM β-glycerophosphate, 10 mM MgCl2, 1 mM EGTA, 1 mM dithiothreitol, 1 mM benzamidine, 0.1 mM ATP, 0.1 mM Na3VO4, 10 μM calmidazolium, 2 μM peptide inhibitor of cyclic AMP-dependent protein kinase ([…] ID NO: 24), 10 μg/ml leupeptin, and 0.025% Tween 20. Table 3 indicates the relative phosphorylation of TH-[…]-containing peptides by purified ERK2. […] These new substrates were assayed for the relative phosphorylation by purified ERK2 similar to the experiments that generated Table 3.

[3] = tested on: MAP kinase; conditions: reported, Kameshita et al., 1997; cited from earlier work
[4] = tested on: ERK1/2; assay: In vitro kinase assay on PC12 cellular extracts with no further purification (with and without nerve growth factor); format: biochemical, rat; conditions: for pattern and degree of ERK activation over time compared with ERK immunoprecipitation and blot immunolabeling assays: PC12 cells with and without NGF, up to 480 min, extracts without purification; for levels of protein kinase activity in cellular extracts: PC12 extracts, no kinase purification, EGTA, calmidazolium, cAMP-dependent protein kinase inhibitor present
Experimental: Cells were treated with or without added 100 ng/ml 7S nerve growth factor for up to 8 h. One group of cells was harvested for blot immunolabeling and solubilized with sodium dodecyl sulfate solution, as described in J. W. Haycock, “Multiple forms of tyrosine hydroxylase in human neuroblastoma cells: Quantitation with isoform-specific antibodies,” J. Neurochem., vol. […] A second group of cells was harvested for kinase assays and subjected to trituration in an ice-cold lysis solution of 50 mM β-glycerophosphate, 1 mM EGTA, 1 mM dithiothreitol, 1 mM benzamidine (Eastman Kodak Co., Rochester, N.Y.), 0.1 mM Na3VO4, 10 μg/ml leupeptin, and 0.05% Tween 20. Supernatants from the latter samples were generated by sonication and centrifugation (20 min at 10,000×g) in a refrigerated centrifuge (Savant, Farmingdale, N.J.). In some experiments, ERK1/2 was isolated prior to assaying kinase activity by immunoprecipitation of the PC12 cellular extracts with anti-pan ERK1/2 and protein A-Sepharose. […] ERK activity assays: Aliquots of supernatants or ERK1/2 immunoprecipitates (suspended in lysis solution) were mixed with substrate (1 mM final, unless stated otherwise) at 4° C. Phosphorylation reactions were initiated by addition of an equal volume of assay buffer containing [γ-^32P]ATP (NEN Life Sciences Products, now PerkinElmer Life Sciences, Boston, Mass.) and Mg^++ and allowed to proceed for 10 min at 30° C., after which duplicate 20 μl aliquots were spotted onto Whatman P81 paper. […] Experiments were conducted to test the ability of different substrates to assay for activation of ERK1/2 in situ. […] Cells were harvested and-assayed for ERK1/2 activity by various methods.

[5] = target: T1, ERK2; assay: Steady-state kinetic analyses of peptide substrates for ERK2; format: biochemical; conditions: for Kmin(app) / Vmax(app) Relative: median of three determinations; for Vmax(app) Relative: relative values
Experimental: as §1
In Table 5, each value represents the median of three independent determinations, performed in duplicate. […] See I. Kameshita et al., 1997. […] 355, pp. 5641-5646 (1996); see also C. N. Prowse et al., “Catalytic reaction pathway for the mitogen-activated protein kinase ERK2,” Biochem., vol. 39, pp. 6258-6266 (2000).

[6] = target: T1, ERK2; conditions: described previously by Robinson et al., 1996; cited from earlier work
[7] = target: T1, ERK2; conditions: stated for MBP protein as contrast to the peptides; cited from earlier work

T1 sequence (P63086 2-358 limits assumed): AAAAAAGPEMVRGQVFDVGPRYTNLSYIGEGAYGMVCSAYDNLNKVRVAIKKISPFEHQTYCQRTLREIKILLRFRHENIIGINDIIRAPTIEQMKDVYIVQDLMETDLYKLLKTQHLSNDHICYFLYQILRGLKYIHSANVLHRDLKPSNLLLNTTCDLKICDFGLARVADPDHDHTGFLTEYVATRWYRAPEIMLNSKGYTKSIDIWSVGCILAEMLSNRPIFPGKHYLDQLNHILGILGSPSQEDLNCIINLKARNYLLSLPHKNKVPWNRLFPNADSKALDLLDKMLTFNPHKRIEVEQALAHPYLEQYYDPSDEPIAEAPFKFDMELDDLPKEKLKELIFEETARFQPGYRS
Chain of ERK1 (P21708 2-380 limits assumed): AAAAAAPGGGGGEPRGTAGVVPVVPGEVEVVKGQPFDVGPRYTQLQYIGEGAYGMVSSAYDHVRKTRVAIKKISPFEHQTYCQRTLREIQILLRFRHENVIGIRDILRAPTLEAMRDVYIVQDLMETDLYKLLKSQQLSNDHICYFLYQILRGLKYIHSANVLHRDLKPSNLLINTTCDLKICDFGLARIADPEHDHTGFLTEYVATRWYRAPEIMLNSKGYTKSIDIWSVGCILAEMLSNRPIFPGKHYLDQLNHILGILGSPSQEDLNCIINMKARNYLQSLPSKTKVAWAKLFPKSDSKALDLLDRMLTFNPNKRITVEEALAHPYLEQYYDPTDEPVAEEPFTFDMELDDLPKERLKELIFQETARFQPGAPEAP

RELATIVE 32P INCORPORATION (% OF MBP) [1] [% OF MBP]	RELATIVE 32P INCORPORATION (% 3.0 μmol/min/mg) Mean [2] [% 3.0 μmol/min/mg]	RELATIVE 32P INCORPORATION (% 3.3 μmol/min/mg) [2] [% 3.3 μmol/min/mg]	Molecule	further results
<1			PTPSAPSPQPK (This sequence is TH (rat) Ser8.) [SEQ ID NO: 4]	
	117	100	YQAEAIMSPRFIGRR-NH2 [SEQ ID NO: 14]	
	182		QATGPLSPGFRR-NH2 [SEQ ID NO: 19]	
		1	IMVRGQSPR (This sequence is based on TH-Ser31 type 2 HUMAN.) [SEQ ID NO: 20]	
		20	EAVTSPRFIGRR (This sequence is based on TH-Ser31 (rat).) [SEQ ID NO: 9]	
		9	AVTSPRFIGRR (This sequence is based on TH-Ser31 (rat).) [SEQ ID NO: 8]	
	215		YQATGPLSPGFRR-NH2 [SEQ ID NO: 18]	
		29	AIMSPRFIGRR (This sequence is based on TH-31 type 1 HUMAN.) [SEQ ID NO: 11]	
	100	80	YQAEAIMSPRFIGRRQ (This sequence is new and based on TH-31 type 1 HUMAN.) [SEQ ID NO: 13]	pattern and degree of ERK activation over time compared with ERK immunoprecipitation and blot immunolabeling assays [4]: faithfully reproduced; Kmin(app) [5]: 1.0 mM
			ATGPLSPGPFGRR (ATGPLSPFGRR; This sequence is ERKtide.) [SEQ ID NO: 23]	Km [6]: 450 µM; pattern and degree of ERK activation over time compared with ERK immunoprecipitation and blot immunolabeling assays [4]: faithfully reproduced; apparent Vmax [5]: 9.4 µmol/min/mg; Kmin(app) [5]: 0.6 mM; Vmax(app) Relative [5]: 82
		2	EAIMVRGQSPRFK (This sequence is based on TH-Ser31 type 2 HUMAN.) [SEQ ID NO: 22]	
	107		QAEAIMSPRFGRR-NH2 [SEQ ID NO: 15]	
	164		YQATGPLSPGPFRR-NH2 [SEQ ID NO: 16]	
5		7	KQAEAVTSPR (This sequence is based on TH-Ser31 (rat).) [SEQ ID NO: 7]	Kmin(app) [5]: 1.8 mM; Vmax(app) Relative [5]: 9
<1			RRAVSEQDAK (This sequence is TH (rat) Ser19.) [SEQ ID NO: 5]	
		21	EAIMSPRFK (This sequence is based on TH-31 type 1 HUMAN.) [SEQ ID NO: 10]	Kmin(app) [5]: 1.4 mM; Vmax(app) Relative [5]: 42
		1	YIMVRGQSPR (This sequence is based on TH-Ser31 type 2 HUMAN.) [SEQ ID NO: 21]	
	143		QATGPLSPGPFRR-NH2 [SEQ ID NO: 17]	
		41	EAIMSPRFIGRR (This sequence is based on TH-31 type 1 HUMAN.) [SEQ ID NO: 12]	
<1			GRRQSLIEDAR (This sequence is TH (rat) Ser40.) [SEQ ID NO: 6]	
13			RRELVEPLTPSGEA (This sequence is EGF Receptor (Thr669).) [SEQ ID NO: 3]	
100			. . . KNIVTPRTPPPS . . . (protein, listed as Bos taurus) AAQKRPSQRSKYLASASTMDHARHGFLPRHRDTGILDSLGRFFGSDRGAPKRGSGKDGHHAARTTHYGSLPQKAQGHRPQDENPVVHFFKNIVTPRTPPPSQGKGRGLSLSRFSWGAEGQKPGFGYGGRASDYKSAHKGLKGHDAQGTLSKIFKLGGRDSRSGSPMARR	Km [7]: 10 to 50 µM; pattern and degree of ERK activation over time compared with ERK immunoprecipitation and blot immunolabeling assays [4]: differed; levels of protein kinase activity in cellular extracts [4]: Higher levels of protein kinase activity

Molecule	RELATIVE 32P INCORPORATION (% OF MBP) [1] [% OF MBP]	RELATIVE 32P INCORPORATION (% 3.0 μmol/min/mg) Mean [2] [% 3.0 μmol/min/mg]	RELATIVE 32P INCORPORATION (% 3.3 μmol/min/mg) [2] [% 3.3 μmol/min/mg]	further results
APRTPGGRR (This sequence is MBPtide (Thr 97).) [SEQ ID NO: 2]	28			Km [3]: 1.6 mM; pattern and degree of ERK activation over time compared with ERK immunoprecipitation and blot immunolabeling assays [4]: differed; levels of protein kinase activity in cellular extracts [4]: Higher levels of protein kinase activity; Kmin(app) [5]: 2.0 mM; Vmax(app) Relative [5]: 46; 32P incorporation ([1]; peptide 1 mM, assay conditions of Table 2): 330 nmol/min/mg

Source: patent publication US7037670B2, “Peptide substrates for assay of extracellular signal-regulated protein kinase 1 and 2 activity” (Board of Supervisors of Louisiana State University and …, priority 2002, dated 2006)
